Results from PMC5760271.
Read-outs that look alike come from different tables or passages of the source.

Columns and labels:
Assay in all cases: limited trypsin proteolysis
SpyCas9 [1] = target: T1, SpyCas9 (Streptococcus pyogenes, UniProt Q99ZW2 1-1368)
FnoCas9 [2] = target: T2, FnoCas9 (Francisella tularensis novicida, UniProt A0Q5Y3 1-1629)
SpyCas9 [3] = target: T1, SpyCas9; remark: listed apart in the source
FnoCas9 [4] = target: T2, FnoCas9; remark: listed apart in the source

T2 sequence (A0Q5Y3 whole entry): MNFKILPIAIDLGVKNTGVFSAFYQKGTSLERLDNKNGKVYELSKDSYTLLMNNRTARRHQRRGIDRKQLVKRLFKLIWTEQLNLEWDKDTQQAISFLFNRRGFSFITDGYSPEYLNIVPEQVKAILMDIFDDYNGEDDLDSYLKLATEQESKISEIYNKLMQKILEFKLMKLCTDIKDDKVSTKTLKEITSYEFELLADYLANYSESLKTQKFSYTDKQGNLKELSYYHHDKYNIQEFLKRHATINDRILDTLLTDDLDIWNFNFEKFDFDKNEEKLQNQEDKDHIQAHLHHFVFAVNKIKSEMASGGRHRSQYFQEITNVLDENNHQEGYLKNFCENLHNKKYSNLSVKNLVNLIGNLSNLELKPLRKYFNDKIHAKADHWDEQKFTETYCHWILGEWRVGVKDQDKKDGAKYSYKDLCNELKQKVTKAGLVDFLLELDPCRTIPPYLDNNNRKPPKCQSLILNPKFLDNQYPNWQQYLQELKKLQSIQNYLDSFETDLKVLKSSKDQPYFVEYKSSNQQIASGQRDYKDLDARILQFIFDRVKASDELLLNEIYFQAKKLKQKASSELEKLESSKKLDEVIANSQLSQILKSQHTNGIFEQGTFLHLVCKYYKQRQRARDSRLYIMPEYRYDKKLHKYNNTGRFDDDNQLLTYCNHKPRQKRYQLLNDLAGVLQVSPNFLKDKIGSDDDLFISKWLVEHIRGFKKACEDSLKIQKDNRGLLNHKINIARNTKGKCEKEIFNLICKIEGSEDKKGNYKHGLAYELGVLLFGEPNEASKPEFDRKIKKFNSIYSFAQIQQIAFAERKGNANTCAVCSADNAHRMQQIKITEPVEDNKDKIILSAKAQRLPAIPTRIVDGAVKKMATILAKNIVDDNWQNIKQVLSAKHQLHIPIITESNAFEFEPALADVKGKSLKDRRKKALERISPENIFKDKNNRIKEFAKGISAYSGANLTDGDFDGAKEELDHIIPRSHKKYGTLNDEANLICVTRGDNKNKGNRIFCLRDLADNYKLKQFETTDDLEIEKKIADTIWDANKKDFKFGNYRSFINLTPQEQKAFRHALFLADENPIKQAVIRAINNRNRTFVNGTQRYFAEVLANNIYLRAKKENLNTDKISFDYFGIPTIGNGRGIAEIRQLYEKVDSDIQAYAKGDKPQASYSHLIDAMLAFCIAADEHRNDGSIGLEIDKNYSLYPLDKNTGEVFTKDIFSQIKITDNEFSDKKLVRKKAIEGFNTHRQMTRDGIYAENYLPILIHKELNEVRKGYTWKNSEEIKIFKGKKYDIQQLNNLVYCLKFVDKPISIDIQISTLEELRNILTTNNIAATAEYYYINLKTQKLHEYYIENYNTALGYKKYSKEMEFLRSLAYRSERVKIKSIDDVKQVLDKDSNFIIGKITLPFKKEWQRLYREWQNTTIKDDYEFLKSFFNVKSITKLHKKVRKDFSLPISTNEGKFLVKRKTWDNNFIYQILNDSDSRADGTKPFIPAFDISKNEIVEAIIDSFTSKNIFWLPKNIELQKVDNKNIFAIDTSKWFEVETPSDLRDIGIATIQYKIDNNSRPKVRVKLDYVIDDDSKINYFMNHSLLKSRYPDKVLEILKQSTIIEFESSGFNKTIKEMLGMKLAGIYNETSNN
T1 sequence (Q99ZW2 whole entry): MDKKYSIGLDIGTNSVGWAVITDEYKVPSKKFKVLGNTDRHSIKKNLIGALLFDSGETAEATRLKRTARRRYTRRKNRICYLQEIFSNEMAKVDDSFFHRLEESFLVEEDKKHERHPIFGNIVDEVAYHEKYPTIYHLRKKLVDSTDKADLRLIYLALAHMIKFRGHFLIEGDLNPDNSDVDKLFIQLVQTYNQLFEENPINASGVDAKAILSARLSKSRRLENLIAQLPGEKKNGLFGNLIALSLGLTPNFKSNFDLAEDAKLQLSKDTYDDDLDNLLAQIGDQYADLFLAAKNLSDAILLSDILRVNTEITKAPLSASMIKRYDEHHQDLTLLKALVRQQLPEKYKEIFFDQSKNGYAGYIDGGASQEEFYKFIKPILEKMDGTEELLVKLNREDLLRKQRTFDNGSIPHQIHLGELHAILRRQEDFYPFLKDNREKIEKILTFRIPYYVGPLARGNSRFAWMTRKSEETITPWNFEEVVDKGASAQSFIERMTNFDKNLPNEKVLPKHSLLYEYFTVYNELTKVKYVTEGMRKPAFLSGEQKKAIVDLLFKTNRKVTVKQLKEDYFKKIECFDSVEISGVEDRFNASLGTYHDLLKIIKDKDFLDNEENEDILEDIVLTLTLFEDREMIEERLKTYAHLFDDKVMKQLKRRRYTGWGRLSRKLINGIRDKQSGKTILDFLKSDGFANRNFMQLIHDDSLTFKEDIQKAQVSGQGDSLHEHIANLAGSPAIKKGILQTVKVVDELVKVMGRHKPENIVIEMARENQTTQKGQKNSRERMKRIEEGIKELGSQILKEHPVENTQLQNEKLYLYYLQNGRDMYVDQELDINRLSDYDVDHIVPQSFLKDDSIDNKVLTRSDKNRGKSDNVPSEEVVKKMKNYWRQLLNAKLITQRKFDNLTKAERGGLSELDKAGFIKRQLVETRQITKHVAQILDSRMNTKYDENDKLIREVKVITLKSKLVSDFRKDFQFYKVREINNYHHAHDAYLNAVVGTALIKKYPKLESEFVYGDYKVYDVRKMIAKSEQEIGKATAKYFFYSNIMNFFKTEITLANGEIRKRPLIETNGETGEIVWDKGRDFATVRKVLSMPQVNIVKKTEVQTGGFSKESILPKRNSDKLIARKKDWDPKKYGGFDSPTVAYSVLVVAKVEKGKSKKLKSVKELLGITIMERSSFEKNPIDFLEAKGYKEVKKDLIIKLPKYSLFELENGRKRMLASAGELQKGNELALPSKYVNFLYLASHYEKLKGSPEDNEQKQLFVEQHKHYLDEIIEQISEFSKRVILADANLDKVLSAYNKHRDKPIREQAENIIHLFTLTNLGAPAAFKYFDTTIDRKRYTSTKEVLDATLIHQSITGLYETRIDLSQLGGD

B1: SpyCas9 sgRNA (structured_RNA)
RNA: GGGAUUUCUUCUUGCGCUUUUUGUUUUAGAGCUAUGCUGUUUUGGAAACAAAACAGCAUAGCAAGUUAAAAUAAGGCUAGUCCGUUAUCAACUUGAAAAAGUGGCACCGAGUCGGUGCUUUUUU
Question: Does B1 bind (SpyCas9 [1])?
Answer: Result: binds

B2: 60-mer ss oligo (197-FR) (ssDNA)
DNA: AGCAGATTGTACTGAGAGTGCACCATATGCGGTGTGAAATACCGCACAGATGCGTAAGGA
Question: What does the source list for B2?
Answer: binding result (FnoCas9 [2]): binds; binding result (SpyCas9 [3]): binds

B3: FnoCas9 crRNA-tracrRNA (structured_RNA)
RNA 1: GGGAUAACUCAAUUUGUAAAAAAGUUUCAGUUGCUGAAUUAUUUGGUAAAC
RNA 2: GGGCCAAAUAAUUAAUGCUCUGUAAUCAUUUAAAAGUAUUUUGAACGGACCUCUGUUUGACACGUCUGAAUAACUAAAAAGCAAAAAUUUGCCACCUAAGUGGCUUUUUUU
Question: Does B3 bind (FnoCas9 [4])?
Answer: Result: binds
